This note sets out measurements from patent publication US20240277844A1.

This assay addresses anti-CD3 idiotype ScFv (CAR6) fused to the 28z-CAR-membrane-bound IL-15 construct, on cord blood-derived NK cells. In words: cell-based or functional assay.

Turning to REGN1979 (bispecific antibody), the Max Activity, CCL5 release (pg/ml), CBNK/CAR6 cells + Ramos/HiBiT was determined as 6.9 pg/mL; the Max Activity, Cytotoxicity (%), CBNK/CAR6 cells + Ramos/HiBiT turned out to be 25.5%; the Max Activity, FasL release (pg/ml), CBNK/CAR6 cells + Ramos/HiBiT came out at 16.4 pg/mL; the Max Activity, Granzyme A release (pg/ml), CBNK/CAR6 cells + Ramos/HiBiT amounted to 643 pg/mL. In addition, the Max Activity, Granzyme B release (pg/ml), CBNK/CAR6 cells + Ramos/HiBiT came out at 239 pg/mL; the Max Activity, IFNγ release (pg/ml), CBNK/CAR6 cells + Ramos/HiBiT is 45.6 pg/mL; the Max Activity, TNFα release (pg/ml), CBNK/CAR6 cells + Ramos/HiBiT was determined as 11.9 pg/mL.
